Biological target: SARS-CoV-2 S (Wuhan)-His (1–1273 aa) expressed in HEK293T cells (SARS-CoV-2 Wuhan, UniProt P0DTC2)
Test: western blot
Settings: one partner purified

B1: anti-S2 monoclonal antibody 4A5 (antibody, V domains shown)
VH: QVKLEQSGPGILQPSQTLSLTCSFSGFSLSTSGMGVSWIRQSSGKGLEWLTHIYWDDDKRYNPSLKSRLTISKDTSRNQVFLKITSVDTADTATYYCARRRMITGLYYAMDYWGQGTSVTVSS
VL: DIVMTQSTLSLPVSFGDQVSISCRSSQSLANSYGITYLSWYLHKPGQSPQLLIYGISNRFSGVPDRFSGSGSGTDFTLKISTIKPEDLGMYYCLQGTHQPWTFGGGTKLEIK
B1: binds.

Source: article PMC10749193 (Frontiers in Immunology, 2023)
